Measurements from patent US8080523 (dated 2011).

B1: Kv1.1 (other)
chain: MTVMSGENADEASTAPGHPQDGSYPRQADHDDHECCERVVINISGLRFETQLKTLAQFPNTLLGNPKKRMRYFDPLRNEYFFDRNRPSFDAILYYYQSGGRLRRPVNVPLDMFSEEIKFYELGEEAMEKFREDEGFIKEEERPLPEKEYQRQVWLLFEYPESSGPARVIAIVSVMVILISIVIFCLETLPELKDDKDFTGTIHRIDNTTVIYTSNIFTDPFFIVETLCIIWFSFELVVRFFACPSKTDFFKNIMNFIDIVAIIPYFITLGTEIAEQEGNQKGEQATSLAILRVIRLVRVFRIFKLSRHSKGLQILGQTLKASMRELGLLIFFLFIGVILFSSAVYFAEAEEAESHFSSIPDAFWWAVVSMTTVGYGDMYPVTIGGKIVGSLCAIAGVLTIALPVPVIVSNFNYFYHRETEGEEQAQLLHVSSPNLASDSDLSRRSSSTISKSEYMEIEEDMNNSIAHYRQANIRTGNCTTADQNCVNKSKLLTDV
- Kd (ShK(L1)): 1 nM
- Kd (ShK(L3)): 1.1 nM
- Kd (ShK(D2)): 1.1 nM

B2: Kv1.3 (other)
chain: MTVVPGDHLLEPEAAGGGGGDPPQGGCGSGGGGGGCDRYEPLPPALPAAGEQDCCGERVVINISGLRFETQLKTLCQFPETLLGDPKRRMRYFDPLRNEYFFDRNRPSFDAILYYYQSGGRIRRPVNVPIDIFSEEIRFYQLGEEAMEKFREDEGFLREEERPLPRRDFQRQVWLLFEYPESSGPARGIAIVSVLVILISIVIFCLETLPEFRDEKDYPASPSQDVFEAANNSTSGAPSGASSFSDPFFVVETLCIIWFSFELLVRFFACPSKATFSRNIMNLIDIVAIIPYFITLGTELAERQGNGQQAMSLAILRVIRLVRVFRIFKLSRHSKGLQILGQTLKASMRELGLLIFFLFIGVILFSSAVYFAEADDPSSGFNSIPDAFWWAVVTMTTVGYGDMHPVTIGGKIVGSLCAIAGVLTIALPVPVIVSNFNYFYHRETEGEEQAQYMHVGSCQHLSSSAEELRKARSNSTLSKSEYMVIEEGGMNHSAFPQTPFKTGNSTATCTTNNNPNSCVNIKKIFTDV
- Kd (ShK(D3)): 0.07 nM
